Source: paper PMC10560287

Target: GmILPA1-cYFP (soybean (Glycine max))
Assay: split reporter (BiFC, NanoBiT); BiFC with nYFP and cYFP fusions co-infiltrated into N. benthamiana leaves together with P19; confocal microscopy; leaves in white light or exposed to 1 h of UV-B (21 μmol m^-2 s^-1)

Chain of GmILPA1-cYFP (soybean (Glycine max)) (main, as listed by the source): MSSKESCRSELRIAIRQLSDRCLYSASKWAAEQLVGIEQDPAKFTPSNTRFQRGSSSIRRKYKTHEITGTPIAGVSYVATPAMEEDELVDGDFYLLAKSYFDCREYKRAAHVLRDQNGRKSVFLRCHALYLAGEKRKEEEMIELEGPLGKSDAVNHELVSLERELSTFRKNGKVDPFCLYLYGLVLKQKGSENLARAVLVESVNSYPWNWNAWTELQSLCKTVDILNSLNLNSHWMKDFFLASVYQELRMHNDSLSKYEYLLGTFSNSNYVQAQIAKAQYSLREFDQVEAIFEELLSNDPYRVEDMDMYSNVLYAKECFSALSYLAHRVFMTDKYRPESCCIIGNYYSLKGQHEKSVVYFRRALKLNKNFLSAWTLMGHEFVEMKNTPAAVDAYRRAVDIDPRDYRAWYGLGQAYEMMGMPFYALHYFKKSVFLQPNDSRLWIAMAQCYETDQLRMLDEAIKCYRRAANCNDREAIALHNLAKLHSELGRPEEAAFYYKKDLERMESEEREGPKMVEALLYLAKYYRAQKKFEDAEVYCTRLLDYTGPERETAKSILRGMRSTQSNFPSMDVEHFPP

fold change of the relative BiFC fluorescence intensity in the cytoplasm, UV-B against white light: 3 fold
Substance: GmGA2ox-like-nYFP (enzyme)
